# Results taken from US12616711B2, “Therapeutic dendrimer” (Starpharma Pty Ltd, priority 2019, dated 2026).
# Tests used:
# [1] = Gemcitabine release from dendrimers in PBS; assay type: physicochemical; conditions: PBS pH 7.4, 37° C.
# Method: (§1) A study was carried out to determine the rate of gemcitabine release from dendrimer compounds in PBS and citrate buffer. Gemcitabine-conjugated dendrimers of the present disclosure, and a comparative example dendrimer, were each dissolved in PBS Buffer (2 mL, 10 mM, pH 7.4) or Citrate Buffer (2 mL, 0.1 M, pH 4.5) and held at 37° C. Samples were then analysed by injecting 5 μL of the solution on HPLC. At various time points, samples were analysed by HPLC. HPLC (C8 XBridge, 3×100 mm), gradient: 5% ACN/H2O (0-1 min), 5-80% ACN (1-7 min), 80% ACN (7-12 min), 80-5% ACN (12-13 min), 5% ACN (13-15 min), 243 nm, 10 mM ammonium formate buffer, 0.4 mL/min.
# [2] = Gemcitabine release from dendrimers in citrate buffer; assay type: physicochemical; conditions: Citrate Buffer pH 4.5, 37° C.
# Method: as §1
substance,measurement,setting,value
"[BHA Lys][Lys]30[Lys]32 [Compound 3, [BHA Lys][Lys]30[Lys]32 [(α-NH-TDA-Gemcitabine)32 (ε-NHPEG˜2100)32]]",% Gemcitabine released in PBS,[1]; 0 h,0%
same,% Gemcitabine released in PBS,[1]; 0.08 h,3.95%
same,% Gemcitabine released in PBS,[1]; 2 h,11.23%
same,% Gemcitabine released in PBS,[1]; 4 h,16.6%
same,% Gemcitabine released in PBS,[1]; 6 h,21.99%
same,% Gemcitabine released in PBS,[1]; 8 h,25.64%
same,% Gemcitabine released in PBS,[1]; 10 h,30.03%
same,% Gemcitabine released in PBS,[1]; 12 h,33.17%
same,% Gemcitabine released in PBS,[1]; 24 h,46.36%
same,% Gemcitabine released in PBS,[1]; 26 h,48.07%
same,% Gemcitabine released in PBS,[1]; 28 h,51.24%
same,% Gemcitabine released in PBS,[1]; 30 h,53.41%
same,% Gemcitabine released in PBS,[1]; 32 h,54.48%
same,% Gemcitabine released in PBS,[1]; 34 h,55.8%
same,% Gemcitabine released in PBS,[1]; 36 h,57.52%
same,% Gemcitabine released in citrate buffer,[2]; 0 h,0%
same,% Gemcitabine released in citrate buffer,[2]; 0.08 h,4.42%
same,% Gemcitabine released in citrate buffer,[2]; 2 h,5.21%
same,% Gemcitabine released in citrate buffer,[2]; 4 h,5.51%
same,% Gemcitabine released in citrate buffer,[2]; 6 h,4.92%
same,% Gemcitabine released in citrate buffer,[2]; 8 h,5.61%
same,% Gemcitabine released in citrate buffer,[2]; 10 h,5.39%
same,% Gemcitabine released in citrate buffer,[2]; 12 h,5.94%
same,% Gemcitabine released in citrate buffer,[2]; 24 h,7.53%
same,% Gemcitabine released in citrate buffer,[2]; 26 h,7.52%
same,% Gemcitabine released in citrate buffer,[2]; 28 h,7.75%
same,% Gemcitabine released in citrate buffer,[2]; 30 h,7.71%
same,% Gemcitabine released in citrate buffer,[2]; 32 h,7.48%
same,% Gemcitabine released in citrate buffer,[2]; 34 h,7.72%
same,% Gemcitabine released in citrate buffer,[2]; 36 h,8.19%
